What was measured:
HLA-A*11:01 = experiment: IEDB peptide-MHC binding, purified MHC/direct/fluorescence; filed as Kd, often an IC50 or EC50 that approximates it; ≥ and ≤ were set here for values at or beyond the usual limits of such assays
HLA-B*27:05 = experiment: as above
HLA-A*31:01 = experiment: as above
HLA-A*01:01 = experiment: as above
HLA-B*58:01 = experiment: as above
HLA-A*26:01 = experiment: as above
HLA-B*08:01 = experiment: as above
HLA-B*40:01 [1] = experiment: as above
HLA-B*07:02 [2] = experiment: as above
HLA-A*03:01 = experiment: as above
HLA-A*69:01 = experiment: as above
HLA-A*02:01 = experiment: as above
HLA-B*15:01 [3] = experiment: as above
HLA-B*44:02 = experiment: as above; conditions: source organism: Vibrio cholerae
HLA-B*44:03 = experiment: IEDB peptide-MHC binding, purified MHC/competitive/radioactivity; filed as Kd, often an IC50 or EC50 that approximates it; ≥ and ≤ were set here for values at or beyond the usual limits of such assays; conditions: source organism: Dengue virus 4 Philippines/H241/1956
HLA-B*40:01 [4] = experiment: as above; conditions: source organism: Dengue virus 4 Philippines/H241/1956
HLA-B*15:01 [5] = experiment: IEDB peptide-MHC binding, purified MHC/competitive/fluorescence; ≥ and ≤ were set here for values at or beyond the usual limits of such assays; conditions: source organism: Zaire ebolavirus
HLA-A*24:02 = experiment: as above; conditions: source organism: Zaire ebolavirus
HLA-B*07:02 [6] = experiment: IEDB peptide-MHC binding, purified MHC/competitive/radioactivity; filed as Kd, often an IC50 or EC50 that approximates it; ≥ and ≤ were set here for values at or beyond the usual limits of such assays; conditions: source organism: Dengue virus 3 Martinique/1243/1999
HLA-B*51:01 = experiment: as above; conditions: source organism: Dengue virus 3 Martinique/1243/1999
HLA-A*24:03 = experiment: IEDB peptide-MHC binding, purified MHC/direct/fluorescence; filed as Kd, often an IC50 or EC50 that approximates it; ≥ and ≤ were set here for values at or beyond the usual limits of such assays; conditions: source organism: Pseudomonas aeruginosa UCBPP-PA14
[7] = source organism: Vibrio cholerae
[8] = source organism: Pseudomonas aeruginosa UCBPP-PA14

AENKKFKLH
2.71 µM: Kd (HLA-B*40:01 [1]; [7])
≥ 20 µM: Kd (HLA-A*11:01; [7]) | Kd (HLA-B*27:05; [7]) | Kd (HLA-A*31:01; [7]) | Kd (HLA-A*01:01; [7]) | Kd (HLA-B*58:01; [7]) | Kd (HLA-A*26:01; [7]) | Kd (HLA-B*08:01; [7]) | Kd (HLA-B*07:02 [2]; [7]) | Kd (HLA-A*03:01; [7]) | Kd (HLA-A*69:01; [7]) | Kd (HLA-A*02:01; [7]) | Kd (HLA-B*15:01 [3]; [7]) | Kd (HLA-B*44:02)

AETQHGTTV
1.46 µM: Kd (HLA-B*44:03)
0.0208 µM: Kd (HLA-B*40:01 [4])

AKHGEYAPF
63.1 µM: IC50 (HLA-A*24:02)
≥ 77.4 µM: IC50 (HLA-B*15:01 [5])

APIQDEERDI
5.06 µM: Kd (HLA-B*07:02 [6])
≥ 69.6 µM: Kd (HLA-B*51:01)

ASDDLEHWQ
≥ 20 µM: Kd (HLA-A*11:01; [8]) | Kd (HLA-B*27:05; [8]) | Kd (HLA-A*31:01; [8]) | Kd (HLA-A*01:01; [8]) | Kd (HLA-B*58:01; [8]) | Kd (HLA-A*26:01; [8]) | Kd (HLA-B*08:01; [8]) | Kd (HLA-B*40:01 [1]; [8]) | Kd (HLA-B*07:02 [2]; [8]) | Kd (HLA-A*03:01; [8]) | Kd (HLA-A*69:01; [8]) | Kd (HLA-A*02:01; [8]) | Kd (HLA-B*15:01 [3]; [8]) | Kd (HLA-A*24:03)

Source: the Immune Epitope Database (IEDB)
